Source: US20140206628A1 (University of Washington, published 2014)
Read-outs that look alike come from different tables or passages of the source.

B1: HB36.1 (Asp47Ser) (designed binder)
chain: MSNAMDGQQLNRLLLEWIGAWDPFGLGKDAYDVEAEAVLQAVYETESAFDLAMRIMWIYAFAFNRPIPFPHAQKLARRLLELKQAASSPLPLE
B2: HB80.1 (Met26Thr, Asn36Lys) (designed binder)
chain: MASTRGSGRPWDFSENLAFELALAFTNKDTPDRWAKVAQYVSGRTPEEVKKHYEILVEDIKYIESGKVPFPNYRTTGGNMKTDEKRFRNLKIRLE

Tests used:
[1] = molecular target: T1, A/South Carolina/1/1918 (H1N1) hemagglutinin ectodomain, biotinylated (Influenza A virus A/South …)
[2] = molecular target: T1, A/South Carolina/1/1918 (H1N1) …; remark: listed apart in the source
[3] = molecular target: T1, A/South Carolina/1/1918 (H1N1) …; remark: listed apart in the source
[4] = molecular target: T1, A/South Carolina/1/1918 (H1N1) …; remark: listed apart in the source

Binder | fold increase of binding affinity relative to HB36 [1] [fold] | Kd [2] [nM] | Kd [3] [nM] | Kd [4] [nM]
B1 | ~40 | 5 | 2 to 5 | 
B2 |  | 7.5 |  | 7.5
